Reference: patent US20150160214A1, “Quantitation of Cellular Adhesion Dynamics Across Immobilized Receptors Under Rheological Shear Flow” (Mayo Foundation for Medical Education and Research, priority 2013, published 2015)

Key:
A1-1261 = biological target: T1, A1-1261 (Homo sapiens, UniProt P04275); assay: Binding of free N-terminal peptide to A1-1261 from thermal unfolding enthalpy (tryptophan fluorescence); conditions: for Apparent TM of primary transition / Enthalpy of the unfolding transition ΔHT*‡: 2° Celsius/min
T1 construct: A1-1261 (amino acids D1261-P1471); made in house
Description: (§1) This would imply a specific interaction between this N-terminal sequence and the A1 domain when covalently linked in sequence. The only way to examine such a stabilization using spectroscopy was the measurement of thermal unfolding via fluorescence. Since the N-terminal peptide also contains a single tyrosine residue, the excitation wavelength was changed to λ=295 nm in order to measure tryptophan fluorescence and the effect of the peptide on the unfolding of the A1-domain was observed indirectly. Thermal scans of 2 μM A1-1261 were performed as a function of increasing amounts of the N-terminal peptide at 2° Celsius/min. […] Thermal scans were also done in the presence of a peptide with the same amino acid composition, but a scrambled sequence. The inset of FIG. 7A compares the raw fluorescence thermal scans in the presence of 300 μM scrambled and N-terminal peptides. Unfolding in the presence of excess scrambled peptide was equivalent to unfolding in the absence of either peptide. […] Fitting the enthalpy data to a simple single site binding model yields a dissociation constant of ≈46±6 μM.
(§2) Prior to all spectroscopic thermal scans, protein samples were equilibrated at 10° Celsius for 15 min to obtain a stable baseline. CD thermal scans between 10 and 95° Celsius were recorded at λ=222 nm using a protein concentration of 1 or 2 μM in a 1 cm quartz cell under moderate stirring. Scan rates were 0.5, 1.0, 1.5 and 2.0° Celsius/min. Integration time for each data point was 20 s with a 1 nm bandwidth. Fluorescence thermal scans between 10 and 95 Celsius were recorded at an emission λ=359 nm after excitation λ=280 nm or λ=295 nm using 2 μM protein in a 1 cm quartz cell with moderate stirring. Scan rates were 0.4 or 0.6, 0.9, 1.6 and 2.0° Celsius/min. At each temperature, relative fluorescence intensity was collected for 4 s and averaged. Thermal scans in the presence of N-terminal peptide at 2.0° Celsius/min were preceded by 1 h incubations at 20° Celsius with 0.02-300 μM peptide.
For the thermal unfolding studies in the presence of peptide, the inventor treated the change in enthalpy of unfolding, ΔHT*^‡ as an observable directly proportional to the degree of binding, X, because the T* was not dependent on peptide concentration.
For the simple single site binding model, A1+P<->A1P, where P is the peptide, the degree of binding is given by
where K is the binding affinity and the free peptide, [P], concentration is given in terms of the total protein, A1T, and peptide, PT, concentrations.

platelet GP1bα [1] = assay: Platelet pause times and translocation velocities on immobilized A1 under shear flow, parallel-plate flow chamber (Example 1); type: cell-based, human; conditions: 5 μM protein immobilized; as a function of shear rate
Description: (§3) To understand the effect of the N-terminal peptide on the function of the A1-domain of vWF, the protein was expressed with (A1-1238) and without the N-terminal peptide (A1-1261). The inventor used a flow chamber to measure the dynamics of platelet interactions with A1-1238 and A1-1261. Each domain variant was immobilized on glass slides with a modified Cu^2+ chelating chemistry that enabled surface capture via the N-terminally fused histidine tag. This method ensured reproducible capture of the proteins eliminating possible structural issues associated with nonspecific immobilization on plastic or glass. The slides were completely inert to platelets. Next, 1 mL of citrated whole blood followed by Tris buffered saline was perfused at low shear to enable platelets to attach to the surface immobilized domains. After red cells were perfused away with buffer, the translocation of the remaining attached platelets over the surfaces was recorded at each shear rate and the velocities and pause times calculated from the coordinate data of each platelet on the surface as described in the methods. […] In addition, the translocation velocities were increased for A1-1238 relative to A1-1261. To determine if this N-terminal sequence could inhibit the catch bond when free in solution, the inventor incubated surface immobilized A1-1261 with excess free peptide and added the free peptide to 1 mL of whole blood and to our perfusion buffer and performed the assay.
(§4) Determination of platelet pause times. Determination of platelet pause times A Glycotech† rectangular parallel-plate flow chamber was mounted to slides with a chelated Cu 21 surface obtained from Microsurfaces Inc. # to which the A1-1261 and A1-1238 domains in TBS were immobilized by the 63His-Tag. Citrated whole blood (1 mL) obtained from informed consent of healthy donors with approval from the Baylor College of Medicine institutional review board followed by buffer was perfused through the chamber at 300s21 for A1-1261 and 700s21 for A1-1238 shear rate to attach platelets to the surface immobilized proteins using a syringe driven variable flow rate pump. The shear was increased incrementally and 1 min movies were recorded at 25 frames/s in phase contrast with 232 pixel binning on a Zeiss Axiocam MRm camera attached to a Zeiss Axio Observer D1 inverted microscope. Tracking analysis was performed using Mediacybernetics ImagePro Premier§. The resulting X-Y coordinate data for each platelet track was differentiated into instantaneous velocities using a Savitzky-Golay algorithm (Savitzky:1964) with a five data point window size and a second-order polynomial implemented into a Mathamatica notebook. These platelet tracks were retained for statistical analysis if the platelet was present for at least 1 s and travelled a total distance greater than 1 lm. Distance travelled in pixels was converted to lm given the camera pixel size=6.45 μm^2, pixel binning, and microscope magnification=400×. Pause times were determined by the amount of time (seconds) a platelets velocity was =0±0.13 μm/s, within the noise. Pause times for all platelet tracks are reported as the mean of the medians. Examples of this analysis for individual platelets and for multiple platelets are provided in the Supporting Information.
(§5) Frame by frame platelet trajectory analysis. Tracking coordinates of individual platelets in units of pixels were exported from ImagePro Premier as a text file and imported into a Mathematica notebook that calculates a Savitzky-Golay first derivative of the total distance traveled over time (Savitzky:1964). The distance was calculated from the X and Y coordinates with the following equation.
(§6) Pause times were determined from the length of time the platelet velocity remained within 0±4 pixel/sec=0.129 μm/sec as illustrated in FIG. 8B. Median pause times were calculated from velocity time profiles for all platelet tracks, stored in a list and translated to histograms for multiple platelets. […]

[2] = Temperature-induced unfolding by fluorescence and CD, irreversible models (Example 1); type: physicochemical
Method: A1-1261 and A1-1238 were thermally unfolded using intrinsic protein tyrosine and tryptophan fluorescence with an excitation λ=280 nm and emission λ=359 nm and CD monitored at λ=222 nm. […] As the scan rate increases, the midpoint of the transition (apparent TM) also increases.
Thermal transitions were analyzed in terms of the observed midpoint of the transition, apparent TM, and also by a two-state irreversible model or a three-state irreversible model as described in the Supplement and the calculated parameters are summarized in FIGS. 5A to 5D. […] If the protein unfolding was at equilibrium and reversible, this apparent TM would remain constant at all scan rates. Extrapolation of the TM to a scan rate of 0° Celsius/min provides an indication of where reversible unfolding would occur under equilibrium conditions; 50° Celsius for A1-1238 and 48° Celsius for A1-1261 from both CD and fluorescence data. For the second transition observed by fluorescence that occurs with A1-1238, the TM extrapolates to about 73° Celsius in the limit of zero scan rate. Analysis by the two-state and three-state irreversible models yields an R^2>0.99 for both fluorescence and CD and a transition temperature, T*, that is independent of the temperature scan rate. In addition, the enthalpies of the transitions are independent of scan rate within experimental error FIG. 5B. FIGS. 5C and 5D show the resulting average T* and ΔHT*^‡±the standard deviation obtained from the fitting of the primary thermal transitions in FIG. 4A to 4D for CD and fluorescence and a total average for both methods. […] However, the unfolding enthalpy was statistically larger for A1-1238 (250±15 kJ/mol) than for A1-1261 (204±10 kJ/mol). The average T* and ΔHT*^‡ observed in the second fluorescence transition of A1-1238 is 89.1±2.2° Celsius and 360±14 kJ/mol.
as §2
For an irreversible two-state transition, unfolding is kinetically controlled by a first order rate constant that varies with temperature according to the Arrhenius equation (Atkins:1994). In our analysis the inventor refers to the intermediate state as the final irreversible state for all thermal transitions involving the unfolding of A1-1261 in the absence of peptide when monitored by fluoresence, CD and DSC and for A1-1238 when monitored by CD and DSC. The following equations derived below are equally valid for any two state irreversible transitions The activation energy in going from N->I is ΔG^‡=−RT ln k^‡ and the inventor expands ln k^‡ as a function of temperature in terms of Δβ=(β−β*)=(1/RT−1/RT*) using a Taylor series, where T̂* is the temperature at which ΔG^‡=0.

[3] = biological target: T2, platelet GP1bα (Homo sapiens); assay: Platelet pause times and translocation velocities on immobilized A1 under shear flow, parallel-plate flow chamber (Example 1); type: cell-based; conditions: 300 μM peptide incubated with immobilized A1-1261; 66 μM in whole blood and buffer
T2 construct: perfused at low shear to enable platelets to attach to the surface immobilized domains; endogenous in cells; host or cells: platelets in citrated whole blood of healthy donors
Description: as §3, §4, §5, §6

platelet GP1bα [4] = biological target: T3, platelet GP1bα (Homo sapiens, UniProt P04275); assay: as above; type: cell-based; conditions: free peptide added
T3 construct: perfused at low shear to enable platelets to attach to the surface immobilized domains; endogenous in cells; host or cells: platelets in citrated whole blood of healthy donors
Description: as §3, §4, §5, §6

[5] = biological target: T4, Recombinant human vWF A1-1261 (amino acids D1261-P1471), N-terminal truncated variant (human, UniProt P04275 1261-1471); assay: thermal unfolding of 2 µM A1-1261, tryptophan fluorescence at 359 nm (excitation 295 nm)
T4 construct: Lacks the linker residues Q1238-E1260; also called truncated A1
Description: as §1, with “indirectly.” for “indirectly. Thermal scans of 2 μM A1-1261 were performed as a function of increasing amounts of the N-terminal peptide at 2° Celsius/min.”

[6] = A1-1261 in presence of free N-terminal peptide

## A1-1261: N-terminal truncated recombinant human vWF A1 domain, amino acids D1261-P1471, with N-terminal 6×His-Tag
A1-1261; 2 μM A1-1261, absence of peptide, excitation 295 nm
  Apparent TM of primary transition: 53 ° Celsius
A1-1261; 2 μM A1-1261, low end of N-terminal peptide titration
  Enthalpy of the unfolding transition ΔHT*‡: ≈ 197 kJ/mol
A1-1261; 2 μM A1-1261, saturating N-terminal peptide
  Enthalpy of the unfolding transition ΔHT*‡: ≈ 242 kJ/mol
A1-1261; 2 μM A1-1261, saturating concentrations of N-terminal peptide
  Apparent TM of primary transition: 55.5 ° Celsius
Platelet GP1bα [1]
  Platelet pause times on immobilized domain (comparison): longer pause times than A1-1238
[2]; [6]
  Average T*, peptide-induced second fluorescence transition: 90.1±8.5 ° Celsius
  Average ΔHT*‡, peptide-induced second fluorescence transition: 33.9 ± 8.87 kcal/mol
[2]; CD and fluorescence data
  Apparent TM extrapolated to a scan rate of 0° Celsius/min, primary transition: 48 ° Celsius
[2]; average of CD and fluorescence
  Transition temperature T*, primary unfolding transition: 64.5±0.9 ° Celsius
  Unfolding enthalpy ΔHT*‡, primary unfolding transition: 48.8 ± 2.39 kcal/mol

## QLPTGVLGEPSDAVPTVYEVTPPG (SEQ ID NO.:2) [scrambled peptide, reference compound]
A1-1261; saturating peptide concentrations
  Effect of peptide on unfolding enthalpy of A1-1261: did not change the unfolding enthalpy
[3]
  Effect of free peptide on platelet pause times on immobilized A1-1261: did not significantly change the pause times or translocation velocities
Platelet GP1bα [4]
  Effect of free peptide on platelet pause times or translocation velocities on immobilized A1-1238: did not significantly change the pause times or translocation velocities

B1: scrambled peptide (QLPTGVLGEPSDAVPTVYEVTPPG) (peptide)
peptide: H-QLPTGVLGEPSDAVPTVYEVTPPG-OH
notes: Synthetic control peptide, said to have the same amino acid composition as the N-terminal peptide in scrambled order
[5]
  binding result: no binding (tested: 300 µM)
